Test [1] concerns the target T1, recombinant PSMA (rPSMA) containing a 6x His tag (human, UniProt Q04609 44-750).
T1 construct: Soluble staining reagent, detected with an anti-His antibody; also called prostate-specific membrane antigen
Nature of the test: flow cytometry, rPSMA-6xHis + anti-His; synNotch/CAR-payload T cells without myc beads (CAR not induced); donor #3. Here is the method:
(§1) Seven days after transduction, T cells transduced as described in example 1 were harvested to determine transduction efficiencies. 1.5×10⁵ T cells were plated in 96 well plates in duplicate. For canonical CAR T cells, T cells were cultured overnight in hTCM (human T cell media), that included of x-vivo 15 (Lonza (Basel, Switzerland)), 5% human serum (Valley Biomedical (Winchester, Va.)), and 1% Glutamax (Gibco). For synNotch T receptor expressing cells, the T cells were cultured in the presence and absence of myc beads overnight to stimulate the synNotch receptor and therebyinduce CAR expression. After overnight culture, CAR expression was measured using recombinant PSMA (rPSMA) containing a 6× His tag (SEQ ID NO: 260). The cells were stained with an anti-His antibody and the stained cells were detected via flow cytometry. Only cells bound by the rPSMA (and anti-His) are detected to measure expression.
For orientation: In flow cytometry, cells or beads pass a laser one at a time.

The target in test [2] is T1, recombinant PSMA (rPSMA) containing a …. Description: flow cytometry, rPSMA-6xHis + anti-His; synNotch/CAR-payload T cells without myc beads (CAR not induced); donor #1.
For test [3] the target is unchanged. Nature of the test: flow cytometry of canonical CAR T cells stained with rPSMA-6xHis and anti-His; donor #1. The protocol:
as §1

T1 sequence (Q04609 other isoform, or with tags, fused parts or gaps limits assumed): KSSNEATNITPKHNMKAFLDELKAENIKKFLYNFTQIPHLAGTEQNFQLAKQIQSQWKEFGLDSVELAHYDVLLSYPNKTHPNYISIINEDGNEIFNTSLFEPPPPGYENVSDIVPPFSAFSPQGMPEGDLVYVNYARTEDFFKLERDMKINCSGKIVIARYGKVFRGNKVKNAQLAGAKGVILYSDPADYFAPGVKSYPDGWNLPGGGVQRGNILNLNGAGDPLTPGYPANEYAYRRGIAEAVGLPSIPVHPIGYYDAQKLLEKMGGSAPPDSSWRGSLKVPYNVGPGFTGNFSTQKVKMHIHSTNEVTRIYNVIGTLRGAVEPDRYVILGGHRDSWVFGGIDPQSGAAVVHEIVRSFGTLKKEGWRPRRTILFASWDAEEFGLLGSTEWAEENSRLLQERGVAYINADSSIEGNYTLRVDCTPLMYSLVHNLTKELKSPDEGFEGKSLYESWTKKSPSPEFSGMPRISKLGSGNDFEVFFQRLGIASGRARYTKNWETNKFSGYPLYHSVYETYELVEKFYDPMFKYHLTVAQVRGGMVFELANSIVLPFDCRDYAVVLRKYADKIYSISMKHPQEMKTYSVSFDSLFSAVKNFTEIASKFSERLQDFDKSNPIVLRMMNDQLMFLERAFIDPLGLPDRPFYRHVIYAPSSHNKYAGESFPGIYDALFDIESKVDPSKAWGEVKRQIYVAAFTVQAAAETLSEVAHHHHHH

B1: anti-PSMA CAR with Ab3 scFv (other)
chain: EVQLVESGGGLVQPGGSMRLSCAASGFTFSDYYMAWVRQAPGKGLEWVANINYDGTSTYYADSLKGRFTISRDSSKNTLYLQMNSLRAEDTAVYYCARALDGYYGYLDVWGQGTTVTVSSGSTSGSGKPGSGEGSTKGDIQLTQSPSSLSASVGDRVTLTCRASQSISNNLHWYQQKPGKAPKLLIKYVSQSISGIPSRFSGSGLGTDFTLTISSVQPEDFATYYCQQSNSWPYTFGQGTKLEIK
notes: Chimeric antigen receptor on the surface of transduced human T cells; Constructs 103 (constitutive) and 203 (inducible payload) are treated as the same CAR protein; also called construct 103; construct 203; not shown: CD8a hinge, CD8a transmembrane, 4-1BB and CD3zeta domains
Consider B1, for which the “% CAR+ (Unstimulated)” value was 4.6% in test [1] and 3.2% in test [2].

B2: anti-PSMA CAR with Ab1 scFv (other)
chain: DIQLTQSPSSLSASVGDRVTITCRASSSVSHIYWYQQKPGKAPKPWIYRTSNLASGVPSRFSGSGSGTDYTLTISSLQPEDFATYYCQQYHTYPPTFGQGTKLEIKGSTSGSGKPGSGEGSTKGEVQLVESGGGLVQPGGSMRLSCAASGFTFSDYYMAWVRQAPGKGLEWIANINYDGSNTYYADSLKGRFTISRDNSKNTLYLQMNSLRAEDTAVYYCARNWDGYYGYFDVWGQGTTVTVSS
notes: Chimeric antigen receptor on the surface of transduced human T cells; Construct 101 is the constitutive EF1a vector and 201 the GAL4-inducible payload vector; also called Abl; construct 101; not shown: CD8a hinge, CD8a transmembrane, 4-1BB and CD3zeta domains
As to B2, the “% CAR+ (Unstimulated)” value turned out to be 6.2% in test [1] and 3.7% in test [2]. Moreover, in test [3], the “% CAR+” value came out at 95.4%.

B3: anti-PSMA CAR with Ab2 scFv (other)
chain: DIQMTQSPSSLSASVGDRVTVTCRASQNVNTNVAWYQQKPGKAPKVLIYSASYRNSGVPSRFSGSGSGTDFTLTISSVQPEDFATYYCQQYNSYPFTFGQGTKLEIKGSTSGSGKPGSGEGSTKGQVQLVQSGAEVKKPGASVKLSCKASGYTFTTYWMHWVRQAPGQGLEWIGMIHPNSGSTNYAQKFQGRATLTVDTSTSTAYMELSSLRSEDTAVYYCARDPYDYGEDFDVWGQGTTVTVSS
notes: Chimeric antigen receptor on the surface of transduced human T cells, expressed from the GAL4-inducible payload vector; also called construct 202; Ab6 SynNotch/202; not shown: CD8a hinge, CD8a transmembrane, 4-1BB and CD3zeta domains
On to B3, for which the “% CAR+ (Unstimulated)” value in test [1] is 1.4%.

The values above are taken from patent publication US20220204930A1 (KITE PHARMA, published 2022).
